The results in this text go back to a protein production outcome set (Wang et al. 2014).

A short description of this data set: label from the status in PepcDB records.
On to “MEEVLKLKIPASTANLGVGFDSIGMALDKYLHMSIRKIERSNWEFLYYSSELEGLPKDENNYIYQTALNVAHKYNVTLPSLQIEMRSDIPLARGLGSSASALVGALFIANYFGNIQLSKYELLQLATEIEGHPDNVAPTIYGGLIAGFYNPITKIT”, for which the protein production entry is recorded as “failed”.

As for “MEFCPKCKSLMIYQGDKLVCRKCGYEKEADDSEELVIKVERNKEDVPVIEGENLKTLPTTKAICPACGHNEAFWWLRQLRAADESEVRFFRCTKCGKTWREYD”, the protein production entry was “failed”.

Consider “MEFEMLETETNGTIIKVIGVGGAGGNAVQHMINKGVQGVDFVVMNTDAQALSRSRAPSVIQLGNTGLGAGAKPEMGRAAAEEARERIADALRGAHMVFITAGMGGGTGTGAAPVVAQIAKEMGILTVGVVSKPFEFEGGKRMRVAEAGSQQLEDHVDSLIVVLNDKLFEVMGDDAEMDKCFQCADDVLNNAVAGIAEIINVDGLVNVDFEDVKTVMGEQGKAMMGTATVAGVDRARLAAEQAVASPLLEGVDLSGARGVLVNITSSRSLRLSETREVMNTIKSYAADDATVIFGAVYDDAMGDALRVTVVATGLGRAAKKQQSAPMTLLRTGTDNQPISAAPQGYAASHHVSTGDYGAFDTPAVWRNSRETAASHVQALQEKGVDTYDIPAFLRKQAD”, for which the protein production result is reported as “not failed”.

Take “MEFTAEQLSQYNGTDESKPIYVAIKGRVFDVTTGKSFYGSGGDYSMFAGKDASRALGKMSKNEEDVSPSLEGLTEKEINTLNDWETKFEAKYPVVGRVVS”: the protein production result is “not failed”.

For the sequence “MEGALAANWSAEAANASAAPPGAEGNRTAGPPRRNEALARVEVAVLCLILLLALSGNACVLLALRTTRQKHSRLFFFMKHLSIADLVVAVFQVLPQLLWDITFRFYGPDLLCRLVKYLQVVGMFASTYLLLLMSLDRCLAICQPLRSLRRRTDRLAVLATWLGCLVASAPQVHIFSLREVADGVFDCWAVFIQPWGPKAYITWITLAVYIVPVIVLATCYGLISFKIWQNLRLKTAAAAAAEAPEGAAAGDGGRVALARVSSVKLISKAKIRTVKMTFIIVLAFIVCWTPFFFVQMWSVWDANAPKEASAFIIVMLLASLNSCCNPWIYMLFTGHLFHELVQRFLCCSASYLKGRRLGETSASKKSNSSSFVLSHRSSSQRSCSQPSTA”, the protein production entry is “not failed”.

As to “MEGERMNAFPSTMMDEELNLWDFLERAAALFGRKEVVSRLHTGEVHRTTYAEVYQRARRLMGGLRALGVGVGDRVATLGFNHFRHLEAYFAVPGMGAVLHTANPRLSPKEIAYILNHAEDKVLLFDPNLLPLVEAIRGELKTVQHFVVMDEKAPEGYLAYEEALGEEADPVRVPERAACGMAYTTGTTGLPKGVVYSHRALVLHSLAASLVDGTALSEKDVVLPVVPMFHVNAWCLPYAATLVGAKQVLPGPRLDPASLVELFDGEGVTFTAGVPTVWLALADYLESTGHRLKTLRRLVVGGSAAPRSLIARFERMGVEVRQGYGLTETSPVVVQNFVKSHLESLSEEEKLTLKAKTGLPIPLVRLRVADEEGRPVPKDGKALGEVQLKGPWITGGYYGNEEATRSALTPDGFFRTGDIAVWDEEGYVEIKDRLKDLIKSGGEWISSVDLENALMGHPKVKEAAVVAIPHPKWQERPLAVVVPRGEKPTPEELNEHLLKAGFAKWQLPDAYVFAEEIPRTSAGKFLKRALREQYKNYYGGA”, the protein production entry is listed as “not failed”.

Regarding “MEGESVKLSSQTLIQAGDDEKNQRTITVNPAHMGKAFKVMNELRSKQLLCDVMIVAEDVEIEAHRVVLAACSPYFCAMFTGDMSESKAKKIEIKDVDGQTLSKLIDYIYTAEIEVTEENVQVLLPAASLLQLMDVRQNCCDFLQSQLHPTNCLGIRAFADVHTCTDLLQQANAYAEQHFPEVMLGEEFLSLSLDQVCSLISSDKLTVSSEEKVFEAVISWINYEKETRLEHMAKLMEHVRLPLLPRDYLVQTVEEEALIKNNNTCKDFLIEAMKYHLLPLDQRLLIKNPRTKPRTPVSLPK”, the protein production entry is given as “not failed”.

With “MEGKEEDVRVGANKFPERQPIGTSAQSDKDYKEPPPAPFFEPGELSSWSFWRAGIAEFIATFLFLYITVLTVMGVKRSPNMCASVGIQGIAWAFGGMIFALVYCTAGISGGHINPAVTFGLFLARKLSLTRALYYIVMQCLGAICGAGVVKGFQPKQYQALGGGANTVAHGYTKGSGLGAEIIGTFVLVYTVFSATDAKRNARDSHVPILAPLPIGFAVFLVHLATIPITGTGINPARSLGAAIIYNKDHSWDDHWVFWVGPFIGAALAALYHVVVIRAIPFKSRS”, the protein production entry is reported as “failed”.

With “MEGMDPLAVLAESRLLPLLTVRGGEDLLGLARVLEEEGVGALEITLRTEKGLEALKALRKSGLLLGAGTVRSPKEAEAALEAGAAFLVSPGLLEEVAALAQARGVPYLPGVLTPTEVERALALGLSALKFFPAEPFQGVRVLRAYAEVFPEVRFLPTGGIKEEHLPHYAALPNLLAVGGSWLLQGNLEAVRAKVRAAKALLSPQAPG”, the protein production result is “not failed”.

With “MEGNKSLVVAHAQRCVVLRFLKFPPNKKKTSEEILQHLQNIVDFGKNVMKDFLGENYVHCGEVVQLPLEFVKQLCLKIQCERPESRCDKDLDTFSGYAMCLPNLTRLQTFHFAEHRPILCVEIKPKCGFIPFSNDVTHEMKHKVCRYCMHQHLKVATGKWKKISKYCPLDLYSGNKQRMHFALRSLLQETQNNLRIFKNGELIYGCGDARSPVADLKELAHHLKPFFFPSNGLASGPHCTKAVIRELVHVITRVLLSSSEKARAGALRLGLQGPRVCEASPFSRSLHNQGKNTSEHSGLPKGCLLYKTLQVQMLDQLDIEGLYPLYKRVEQYLEEFPEERKTLQIDGPYDEVFYQKLLDLSTEDDGTVAFALTKVQQYRVAMTAKDCSIMIALSPCLEHHHHHH”, the protein production entry is reported as “failed”.

Take “MEGQENKVLFGLENVHYATYSETDGVITYDTPKPLPGGVEISVEPQGDMIKFYADNIVYYQAPNNQGYEGTLTIASIPEGFATDCLGEELDTVDGVLTEKSDAKPKPFALLFEFDGDVKSVRQVLYNCTASRPTVASSTLEHHHHHH”: the protein production result is reported as “not failed”.

On to “MEHDERTHVPVELRAAGVVLLNERGDILLVQEKGIPGHPEKAGLWHIPSGAVEDGENPQDAAVREACEETGLRVRPVKFLGAYLGRFPDGVLILRHVWLAEPEPGQTLAPAFTDEIAEASFVSREDFAQLYAAGQIRMYQTKLFYADALREKGFPALPV”, for which the protein production entry is recorded as “not failed”.

Regarding “MEHPLIRIVILAVLAYVGYALLCFLVQRTIIYPGRSLSVAGQPPDLPDIHPLWLTTPYGHVESWFLPATGSVAGDRRPVVLFFHGNGEVIDVLPDQAEGFRRMGMHVMLVEYPGYGRSGGSPSEEGITAAAVAAYDELVRRSDTDSGRMIAFGRSLGCGAACALSLRRPLAALILQSPFTSTRPFARQMLLPGFLARDVFDNRKALESYGGAVLILHGTEDDIIPVGHGRELARTVRRGCLIELRCGHNDCPPDWLEFWRIIEGFLEQEGVSGRK”, the protein production entry is “failed”.

Consider “MEIFFTILILTLVVSLSGVVTRILPFQVPLPLMQIALGAILAWPQFGLHVDFNPELFMVLFIPPLLFADGWKTPTREFLRHGREIIGLALVLVLITVVGIGYFIYWMVPGMPLIAAFALAAVLSPTDAVALSGIVGEGRIPKKLMGILQGEALMNDASGLVSLKFAVAIAMGTMVFTVSGATLEFVQVALGGLLAGVGVTWIFGKSLRVISRWSGDDAATQIVLLLLLPFASYLIAEHIGVSGILAAVAAGMTIGQSGVIRSAPLTMRMRANGVWSMLEFVFNGMVFIMLGLQLPDILETSVTQAELDPTVETWMLFTDIAIIYGALLLLRFSWLWVMRTYSVHIQKKRPMVFAEFSTRELWIASFAGVRGAITLAGVLSIPLLLTDGTAFPSRYQLVFIATGVILFSLLCGVLALPFLLRGVVVADKAAHAKEIRMARMAVAEVAIKSMHKMEERLAADREENIDEQVLKEVSARVIGNLRRRLINKDDPENGLLIENLERRFRLTALNSERAELYHLRATQQISNETLQKMLRDLDLMEALLIENE”, for which the protein production result is given as “failed”.

As for “MEIHSERKKRLSLSLLFKIIKDTVWGFIDDSVMRLSASLAYATLFSIIPFLSLLVTVGVFFHMDLANQLYVQLQPIVGPEVTEALRSIIENAENTDSSRSAAFVSLGISILGATTIFAEIQSSLNSIWGIKAVPKKSWLKFIKNRILSFSIILVFAFILLITFTITNIIGELSQKFIFKYPEVADSLVKVVGIIINMSVTTIIFTLIFKILPDAKIKSKDVCIGAVVTTILLLIGQWGISFYIGIANVGTVYGAAAFMVVFVTWIYYSSIIIYTGAEFTKAWANEMGGKIFPDEYAVATKTIEIHEDKPIE”, the protein production result is recorded as “failed”.

As to “MEIILNSGGTFVILAAVVGFFMAWGIGANDVANAMGTSVGSKALTIKQAIIIAMIFEFAGAYLAGGEVTSTIRKGIIDASYFVDSPELLVYGMISALFAAATWLLIASALGWPVSTTHSIVGAIVGFAAVGVSTDAVEWGKVVGIVGSWIITPLISGIIAFIIFNSAQKLIFDTDKPLQQAKRWVPAYMFLAGFVLSLVTIKKGLKHIGLENVNLGFVNFEIKGAGGFYLAAIVAIIVAIIGKFFISRLKFDENLAKEAHYVNVEKVFAILMIVTACAMAFAHGSNDVANAIGPLAAVVSIVEHDGQIAAKSAIAWWILPLGGFGIVAGLALFGHKVIATIGQGITHLTPSRGFAAELAAASTVVIASGAGLPISTTQTLVGAVLGVGMARGIAAINLGVVRNIVVSWVITLPVGAGLSIVFFWIMQATFS”, the protein production result is “failed”.

For the sequence “MEIINLTYIPLGVYNYYKSNNQEVKMQTIDISELELLTESENPVIVDVREDFEYNSGHVPNAKNIPLSQLEERYAEITDGTYLICQSGARSARACQYLSTKGIDTINISGGTIAWNGP”, the protein production entry is on record as “failed”.

“MEIKPGLSALVTGGASGIGRALCLALAEKGVFVTVADFSEEKGQETTSLVREANAKFHQGLSFPSAIFVKCDVTNRGDLLAAFDKHLATFGTLDICINNAGISTPLRFDKDDTDGSKSWKHTINVDLIAVVEGTQLAIKAMKAKQKPGVIINMGSAAGLYPMPVDPIYAASKAGVVLFTRSLAYYRRQGIRINVLCPEFIKTDLAEAIDASILESIGGYMSMDMLIKGAFELITDEKKAGACLWITKRRGLEYWPTPMEETKYLVGSSSRKRPSFKVSTKIEFPQSFEKMIVHTLSHKFRSATRIVRAPLQLPIGPHQVLLKIIYAGVNASDVNFSSGRYFTGGSPKLPFDAGFEGVGLIAAVGESVKNLEVGTPAAVMTFGAYSEYMIVSSKHVLPVPRPDPEVVAMLTSGLTALIALEKAGQMKSGETVLVTAAAGGTGQFAVQLAKLSGNKVIATCGGSEKAKLLKELGVDRVIDYKSENIKTVLKKEFPKGVNIIYESVGGQMFDMCLNALAVYGRLIVIGMISQYQGEKGWEPAKYPGLCEKILAKSQTVAGFFLVQYSQLWKQNLDKLFNLYALGKLKVGIDQKKFIGLNAVADAVEYLHSGKSTGKVVVCIDPAFEQKTSRL”: the protein production result was “failed”.

Regarding “MEISFTRVALLAAALFFVGCDQKPQPAKTHATEVTVLEGKTMGTFWRASIPGIDAKRSAELKEKIQTQLDADDQLLSTYKKDSALMRFNDSQSLSPWPVSEAMADIVTTSLRIGAKTDGAMDITVGPLVNLWGFGPEQQPVQIPSQEQIDAMKAKTGLQHLTVINQSHQQYLQKDLPDLYVDLSTVGEGYAADHLARLMEQEGISRYLVSVGGALNSRGMNGEGLPWRVAIQKPTDKENAVQAVVDINGHGISTSGSYRNYYELDGKRLSHVIDPQTGRPIEHNLVSVTVIAPTALEADAWDTGLMVLGPEKAKEVVRREGLAVYMITKEGDSFKTWMSPQFKSFLVSEKN”, the protein production result is on record as “not failed”.

Consider “MEITIFGKGNMGQAIGHNFEIAGHEVTYYGSKDQATTLGEIVIMAVPYPALAALAKQYATQLKGKIVVDITNPLNFDTWDDLVVPADSSAAQELQQQLPDSQVLKAFNTTFAATLQSGQVNGKEPTTVLVAGNDDSAKQRFTRALADSPLEVKDAGKLKRARELEAMGFMQMTLAASEQIGWTGGFAVVK”, for which the protein production result was “failed”.
